Laboratory results as given in patent publication US20230052646A1 (JJP BIOLOGICS SP Z O O, published 2023).

How the values were obtained:
[1] = target: T1, membrane-bound full-length human HVEM on stable HVEM-transfected HEK293F cells (clone no. 128) (human, UniProt Q92956 39-283); assay: FACS titration on HVEM-HEK293F, half-maximum binding
T1 construct: The same cDNA was also expressed on Sf9 insect cells; also called TNFRSF14; CD270
T1 sequence: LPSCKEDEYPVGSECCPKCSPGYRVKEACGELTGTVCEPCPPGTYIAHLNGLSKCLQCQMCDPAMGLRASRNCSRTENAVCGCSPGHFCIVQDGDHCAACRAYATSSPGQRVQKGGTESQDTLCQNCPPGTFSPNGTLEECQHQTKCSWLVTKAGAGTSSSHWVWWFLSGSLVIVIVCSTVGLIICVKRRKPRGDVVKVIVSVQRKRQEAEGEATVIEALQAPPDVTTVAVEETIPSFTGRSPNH
Method: In order to determine the relative binding affinity of purified BTLA/HVEM blocking chimeric mouse/human anti-human HVEM antibodies no. 36H12, 45H6, 48H6, 11H7, and 49G4 for human HVEM, FACS analysis was used.
To this end, stable human full-length HVEM-transfected HEK293F cells (clone no. 128; see Example 1(a) above) were put at 10×10⁶ cells/mL in ice-chilled PBS containing 0.1% BSA (Sigma)/0.05% NaN₃ (PBS/BSA/NaN₃) supplemented with 50 μg/mL human IgGs (blocking possible Fcγ receptors; Sigma) for 10 minutes at 4° C. Then, 10 μL/tube (i.e., 0.1×10⁶ cells) of these cells were incubated with or without 100 μL titrated (in PBS/BSA/NaN₃) purified BTLA/HVEM blocking chimeric mouse/human anti-human HVEM antibody/tube for 30 minutes at 4° C. After extensive washing in PBS/BSA/NaN₃, cells were subsequently incubated with 1:200 diluted PE-conjugated goat anti-human IgG Fcγ-specific antibodies (Jackson ImmunoResearch) for 30 minutes at 4° C. After extensive washing in PBS/BSA/NaN₃, cells were fixed in 4% formaldehyde in PBS/BSA/NaN₃ for 30 minutes at 4° C. Binding (geo-mean fluorescence intensity) of chimeric mouse/human anti-human HVEM antibodies no. 36H12, 45H6, 48H6, 11H7, and 49G4 on membrane human HVEM was measured using a flow cytometer (FACSCalibur; BD Biosciences). For comparison, purified BTLA/HVEM blocking mouse anti-human HVEM antibody counterparts no. 36H12, 45H6, 48H6, 11H7, and 49G4 were run in parallel, and their binding was monitored as described in Example 2 (a).

[2] = target: T1, membrane-bound full-length human HVEM …; assay: FACS, Ab 10 µg/mL then biotinylated BTLA on HVEM-HEK293F
Method: Generation of human ‘full-length’ HVEM-transfected HEK293F cells (clone no. 128) is described in Example 1a. Binding of soluble human BTLA, of soluble human CD160, of soluble human LIGHT, and of soluble human TNFβ on surface human HVEM-transfected cells was analysed by FACS analysis. To this end, stable human full-length HVEM-transfected HEK293F cells were put at 10×10⁶ cells/mL in ice-chilled phosphate-buffered saline containing 0.1% BSA (Sigma)/0.05% NaN₃ (PBS/BSA/NaN₃) supplemented with 50 μg/mL human IgGs (blocking possible Fcγ receptors; Sigma) for 10 minutes at 4° C. Then, 10 μL/tube (i.e., 0.1×10⁶ cells) of these cells were incubated with or without 100 μL purified chimeric mouse/human anti-HVEM antibody at 10 μg/mL/tube or a human IgG4/κ (Sigma) negative isotype control at 10 μg/mL/tube for 30 minutes at 4° C. After this (i.e., without washing), cells were subsequently incubated with 1 μg/mL soluble biotinylated human BTLA (Sino Biological Inc), with 10 μg/mL soluble his-tagged human CD160 (Sino Biological Inc), with 1 μg/mL soluble his-tagged human LIGHT (Sino Biological Inc), or with 0.1 μg/mL soluble biotinylated human TNFβ (Sino Biological Inc) in PBS/BSA/NaN₃ for 30 minutes at 4° C. After extensive washing in PBS/BSA/NaN₃, cells were incubated with 1:200 diluted PE-conjugated streptavidin (detection BTLA and TNFβ; Jackson ImmunoResearch) or with biotinylated mouse anti-his antibody (detection CD160 and LIGHT; R&D Systems) at 10 μg/mL for 30 minutes at 4° C. After extensive washing in PBS/BSA/NaN₃, cells were incubated with 1:200 diluted PE-conjugated streptavidin (detection CD160 and LIGHT; Jackson ImmunoResearch) for 30 minutes at 4° C. After extensive washing in PBS/BSA/NaN₃, cells were fixed in 4% formaldehyde in PBS/BSA/NaN₃ for 30 minutes at 4° C. Binding of ligands BTLA, CD160, LIGHT and TNFβ on membrane human HVEM was measured using a flow cytometer (model FACSCalibur; BD Biosciences). For comparison, purified BTLA/HVEM blocking mouse anti-human HVEM antibody counterparts no. 36H12, 45H6, 48H6, 11H7, and 49G4 at 10 μg/mL/tube and a mouse IgG1 (BD Biosciences) negative isotype control at 10 μg/mL/tube were run in parallel.

B1: mouse anti-human HVEM antibody no. 36H12 (antibody, mouse IgG1, V domains shown)
VH: EVQLQQSGAGLVKPGASVKLSCTASGFNIKDTYMHWVRQRPEQGLEWIGRIDPATANTKYDPKFQGKATLTTDTSSNTAYLQLSSLTSEDTAVYYCVTYGYDVSWFAYWGLGALVTVSA
VL: DVLMTQTPLSLPVSLGDQASISCRSSQSIVHSNGITYLEWYLQKPGQSPKLLIYKVSNRFSGVPDRFSGSGSGTDFTLKISRVEAEDLGVYYCFQGSHVPLTFGAGTKLELK
notes: mouse IgG1/kappa; also called 36H12 (mouse)
EC50 [1]: 0.43 mg/L
% blocking of ligand binding [2]: > 95%
